This is an account of results in US20260258115A1 (MAPP BIOPHARMACEUTICAL, published 2026).

For one test, the target named is RSV F on RSV-A2 virus (Respiratory Syncytial Virus (RSV-A2), UniProt P03420 26-574). Nature of the test: cell-based or functional assay.
The target of test [1] is RSV prefusion F (preF), DS-Cav1 (Respiratory Syncytial Virus, UniProt P03420 26-513). Nature of the test: BLI, IgG on anti-human IgG sensor, 100 nM antigen, 1:1 fit. For orientation: In BLI a coated tip is dipped into the sample, and binding shifts an interference pattern.
The target in test [2] is RSV postfusion F (postF), F ΔFP (Respiratory Syncytial Virus, UniProt P03420 26-513). The test is described as above.

Substitutions are numbered along the chain they refer to.

B1: ADI-41508 (antibody, V domains shown)
VH: QVQLVQSGAEVRKPGASVKVSCKASGYGFRSYDLTWVRQAPGKGLEWVGWISAYSGGTNYAQTLQGRVTMTTDTSTSTAYMELRSLGPDDTAVYYCARAGLYGSGSPDGFDSWGQGTLVTVSS
VL: SYELTQPPSVSVSPGQTASITCSGDKLGDKYASWYQQRPGQSPVLVISQDTKRPSGIPERFSGSTSGNTAILTISGTQAMDEADYYCLAWDSSTAWVFGGGTKLTVL
notes: also called Ab 786; Antibody Number 786
A word on the Kd: it is the concentration at which binding is half-saturated. Higher therefore signals weaker binding. B1: the “Neutralization IC50 (RSV subtype A)” value with RSV F on RSV-A2 virus is 0.1 µg/mL. Moreover, the dissociation constant (Kd) in test [1] turned out to be 4.15 nM; in test [2], 0.555 nM.

B2: ADI-41497 (antibody, V domains shown)
VH: QVQLVESGGGVVQPGRSLRLSCAASGFTFSNHAMHWVRQAPGKGLEWLSFISYDGGVNFYRDSVKGRFTISRDNSKNTLYLQMSSLRPEDTAVYYCARDRVGRVVGASYYLDYWGRGALVTVSS
VL: QSVVTQPPSVSVAPGQTASITCGGKHIGSKSVHWYQQKPGQSPVLVVHDDSDRPSGILERFSGSNSGNTATLTINRVEAGDEADYYCQVWDNASDHPYVFGPGTKVTVL
On to B2, for which the “Neutralization IC50 (RSV subtype A)” value with RSV F on RSV-A2 virus was greater than 25 µg/mL. Besides, the dissociation constant (Kd) in test [1] came out at 1.44 nM; in test [2], 0.268 nM.

B3: ADI-41495 (antibody, V domains shown)
VH: QVQLVQSGGGLVEPGGSLRLSCAASGFTFSNTWMNWVRQAPGKGLTWVGRIKRKTDFGTSDYAAPVKGRFTISRDDSKNMVFLQMNSLKIEDTGVYYCTTHPRPYLDTTAVVYWGQGTLVTVSS
VL: QPVLTQPHSVSESPGKTVTISCIGSSGSITSNYVQWFQQRPGSAPTTVIYEDDQRPSGVPDRFSGSIDSSSNSASLTISGLKTEDEADYYCQSYHHTNPWVFGGGTKLTVL
Consider B3, for which the “Neutralization IC50 (RSV subtype A)” value with RSV F on RSV-A2 virus is greater than 25 µg/mL. Further, the results for the dissociation constant Kd in test [1] and in test [2] were 77.2 nM and 57.3 nM, respectively.

B4: ADI-41493 (antibody, V domains shown)
VH: QVQLVQSGAEVKKPGESLKISCKGSGYSFTKYWIGWVRQLPGKGLEWMGIIYPGDSETIYSPSFQGQVTISADKSVSTAYLQWSSLKASDTAMYYCARQTFVFWGESHDAFDIWGQGTTVTVSS
VL: QPVLTQPPSASGSPGQSVTISCTGTSSDVGAHNYVSWYQQHPGKAPKLMIYEVSKRPSGVPDRFSGSKSGNTASLTVSGLQAEDEADYYCSSYAGSNNWVFGGGTKLTVL
notes: also called Ab 773; Antibody Number 773
Consider B4, for which, in the test with RSV F on RSV-A2 virus, the “Neutralization IC50 (RSV subtype A)” value was greater than 25 µg/mL. Further, the Kd in test [1] was 0.45 nM; in test [2] it was 0.372 nM.

B5: ADI-41504 (antibody, V domains shown)
VH: EVQLLESGPGLLKTSETLSLTCTVSDGSISGYYWTWIRQPPGKGLECIGYISYSGSTNYSPSLKSRVTISVDTSKNQFSLKLSSVTAADTAVYYCAKIGGYCNPTKCYGWFDPWGQGTLVTVSS
VL: QPVLTQPPSVSGAPGQRVTISCTGSSSNIGAGYDVHWYQQLPGTAPKLLIFGNTNRPSGVPDRFSGSKSGTSASLAITGLQAEDEAAYYCQSYDSSLFYVVLGGGTKLTVL
notes: also called Ab 783; Antibody Number 783
As to B5, the “Neutralization IC50 (RSV subtype A)” value with RSV F on RSV-A2 virus was greater than 25 µg/mL. The Kd worked out at 2.8 nM in test [1] and 0.508 nM in test [2].

B6: ADI-41496 (antibody, V domains shown)
VH: QVQLVQSGAEVKKPGASVKVSCKASGYTFTSDDINWVRQATGQGLEWMGWMNPNSGDTGYAQKFQGRVTMTRDTSISTAYMELSSLRSEDTAVYYCARVRIQCSGGRCSYWFFDLWGRGTLVTVSS
VL: QSALTQPASVSGSPGQSITISCIGTSSDVGNYNLVSWYQHHPGKAPKVMIYEVNERPSGVSNRFSGSKSGNTASLTISGLQAEDEADYYCCSYAGRSTWVFGGGTKLTVL
For the molecule B6, in the test with RSV F on RSV-A2 virus, the “Neutralization IC50 (RSV subtype A)” value is greater than 25 µg/mL. The Kd came out at 1.65 nM in test [1] and 1.37 nM in test [2].

B7: ADI-41487 (antibody, V domains shown)
VH: QVQLVESGGGLVKPGGSLRLSCAASGFTFSTYTMNWVRQAPGKGLEWVSSISGSSAYIYYADSVKGRFTISRDNAKNSLFLQMNSLRAEDTAVYYCARLQGLVLPAVMPSYYYYSGMDVWGQGTTVTVSS
VL: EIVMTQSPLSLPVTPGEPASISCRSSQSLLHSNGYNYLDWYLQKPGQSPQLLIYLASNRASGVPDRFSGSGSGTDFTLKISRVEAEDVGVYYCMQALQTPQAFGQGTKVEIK
notes: also called Ab 768; Antibody Number 768
For the molecule B7, in the test with RSV F on RSV-A2 virus, the “Neutralization IC50 (RSV subtype A)” value was greater than 25 µg/mL. Also, the results for the equilibrium dissociation constant (Kd) in test [1] and in test [2] were 3.12 nM and 0.754 nM, respectively.

B8: ADI-41498 (antibody, V domains shown)
VH: EVQLLESGGGLVKPGGSLRLSCAASGFIFSDYAMNWVRQTPGKGLEWVSSISDSSAYKYYTGSVSGRFTISRDNAKNSLYLQMNDLRPEDTAVFYCARGQWRCSGASCYSPFDSWGQGTLVTVSS
VL: SYELTQPPSVSVAPGQTARIPCGGNNIESKNVHWYQQKPGQAPVLVVYDDSDRPSGIPERFSGSNSGSTATLTISRVEAGDEADYYCHVWHRSGDLREVFGSGTKVTVL
notes: also called Ab 778; Antibody Number 778
B8: the “Neutralization IC50 (RSV subtype A)” value in the test with RSV F on RSV-A2 virus was greater than 25 µg/mL. Moreover, the Kd in test [1] came to 1.22 nM; in test [2] it was 0.22 nM.

B9: ADI-41485 (antibody, V domains shown)
VH: EVQLLESGPGLVRPSETLSLTCTVSGGSLDSGPHYWNWIRQPPGKGLEWIGYIYYSVSTNYNPSLKSRVTISMDTSKNQFSLNLTSVTAADTAVYYCASFQLIYGPQIWGQGKKVTVSS
VL: DIVLTQSPSSVSASVGDRVTITCRASQAISSWLIWSQHKPGKAPKVLIYAASSLQSGVPSRFSGSGSGTDFTLTISSLQPEDFATYYCQQANNFPLTFGGGTKVEIK
As to B9, in the test with RSV F on RSV-A2 virus, the “Neutralization IC50 (RSV subtype A)” value is greater than 25 µg/mL. Further, the Kd is 3.01 nM in test [1] and 1.02 nM in test [2].

B10: ADI-41527 (antibody, V domains shown)
VH: EVQLLESGGGLVQPGGSLRLSCAASGFTFTSYWMSWVRQAPGQGLEWVATIKQDGSEKYYVDSVKGRFTISRDNAKNSLYLQMNSLGAEDTAVYYCARDMYCSTTTCYFFETYYYNGMDVWGQGTTVTVSS
VL: DIRLTQSPSSVSASVGDRVTITCRASQVTSTWLAWYQQNPGKAPKLLIYAASRLQSGVPSRFSGSGSGTEFTLTISSLQPEDFATYYCQQANSFPLTFGGGTKVEIK
notes: also called Ab 799; Antibody Number 799
In the case of B10, the “Neutralization IC50 (RSV subtype A)” value with RSV F on RSV-A2 virus was greater than 25 µg/mL. For the same molecule, the figures for the equilibrium dissociation constant (Kd) in test [1] and in test [2] were 0.712 nM and 0.337 nM, respectively.

B11: ADI-41526 (antibody, V domains shown)
VH: QVQLVQSGAEVKKPGASVKVSCEASGYTFTDYYMHWVRQAPGQGLEWMGWINPNSGVTKIAQNFQGRVTMTRDTSITTAYMDLSRLRSDDTAVYYCARVVDGDYDNWFDFWGQGTLVTVSS
VL: SYVLTQPPSASGTPGQRVTISCSGSTSNIGTNTVNWYQQPPGMAPKLLIYANNQRPSGVPDRFSGSKSGTSASLAISGLQSEDEADYHCAVWDDSLPGWVFGGGTKLTVL
For the molecule B11, in the test with RSV F on RSV-A2 virus, the “Neutralization IC50 (RSV subtype A)” value was greater than 25 µg/mL. The Kd in test [1] was determined as 0.301 nM; in test [2] it was 0.336 nM.

B12: ADI-41499 (antibody, V domains shown)
VH: EVQLVESGGVVVQPGGSLRLSCAASGFSFDDYTMYWVRQAPEKGLEWISLISWNGGVTYYPDSVKGRFTVSRDNNKNSLYLQMDSLRPEDSAFYYCAKESLESSGHFLDYWGQGTLVTVSS
VL: QPVLTQSRSVSGSPGQSVTISCIGTNSDVGGYHYVSWFQHHPGKAPKLMIYDVSRRPSGVPARFSGSKSGNTASLSISGLRAEDEADYYCCSFAGTYTPYVFGTGTKLTVL
Consider B12, for which, in the test with RSV F on RSV-A2 virus, the “Neutralization IC50 (RSV subtype A)” value is greater than 25 µg/mL. The equilibrium dissociation constant (Kd) is 1.99 nM in test [1] and 0.297 nM in test [2].

B13: ADI-41502 (antibody, V domains shown)
VH: QVQLVQSGAEVKKPGSSVKVSCKASGGPFSSDAMSWVRQAPGQGLEWMGGIIPILGSATYAQKFKGRVTIAADESTSTSYMELSGLKYEDTAVYYCARPFYDPLTGYFDTFNVWGQGTTVTVSS
VL: QSVLTQPRSVPGSPGQSVTISCTGTSGDVGGYNYVSWYQQHPGKAPKLVIYDVTKRPSGVPDRFSGSKSGNRASLTISGLQAEDEADYYCCSYAGSQTGYVFGTGTKVTVL
notes: also called Ab 781; Antibody Number 781
As for B13, in the test with RSV F on RSV-A2 virus, the “Neutralization IC50 (RSV subtype A)” value is greater than 25 µg/mL. For the same molecule, the values for the Kd in test [1] and in test [2] were 1.34 nM and 0.308 nM, respectively.

B14: ADI-41486 (antibody, V domains shown)
VH: QVQLQQWGAGLLKPSETLSLTCSVYGGSFSGYYWSWIRQPPGKGLEWIGEINHSGSTNYNPSLKSRITISVDTSKNQFSLKLNSVTAADTAVYYCARGDYAFVTFDYWGQGTLVTVSS
VL: QSVLTQPASVSGSPGQSITISCTGTSSDVGGYNYVSWYQQHPGKAPKLMIYEVSNRPSGVSNRFSGSKSGNTASLTISGLQAEDEADYYCSSYTSSSTPVFGGGTKLTVL
notes: also called Ab 767; Antibody Number 767
On to B14, for which the “Neutralization IC50 (RSV subtype A)” value with RSV F on RSV-A2 virus was greater than 25 µg/mL. The dissociation constant (Kd) in test [1] was 2.86 nM; in test [2], 0.448 nM.

B15: ADI-41503 (antibody, V domains shown)
VH: EVQLLESGGGLVQPGGSLRLSCAASGFTFSDFPLSWVRQAPGKGLVWVSAISSSGGDTYYADSVKGRFTISRDSSKNALYLQMNSLRAEDTAVYYCAKGQELLRPYYYGMDVWGQGTTVTVSS
VL: B14 VL with V3A, T5I, Y34F, Y51F, N62H, Y93C, S96R, S97F, P99Y, G103T
On to B15, for which the “Neutralization IC50 (RSV subtype A)” value with RSV F on RSV-A2 virus is greater than 25 µg/mL. In addition, the dissociation constant (Kd) worked out at 3.14 nM in test [1] and 0.493 nM in test [2].

B16: ADI-41494 (antibody, V domains shown)
VH: EVQLVESGGGLVQPGRSLRLSCTTSGFTFGDYAVTWVRQAPGKGLEWIGIMKSKTYRGTTDYAASLRGRFSISRDDSKSIAYLQMTSLKSEDTGVYYCVRGHDYGDPFDYWGQGTLVTVSS
VL: B14 VL with T25G, G31Y, M49L, E52D, S54N, N62D, A82P, S95R, S97R, P99W
notes: also called Ab 774; Antibody Number 774
As to B16, the “Neutralization IC50 (RSV subtype A)” value in the test with RSV F on RSV-A2 virus is greater than 25 µg/mL. For the same molecule, the dissociation constant Kd in test [1] came to 2.61 nM; in test [2] it was 0.44 nM.

B17: ADI-41492 (antibody, V domains shown)
VH: QVQLVQSGAEVRKPGSSVKVSCKASGGTFNSFVISWVRQAPGQGLEWMGRIIPILATVDYAQKFQGRVTITADKSTTTAYMELSGLTSEDTAVYYCARDPPRWDTTMADYYYQGMDVWGQGTTVTVSS
VL: DIRVTQSPASLSAFVGDRVTISCRASQSIGSFLNWYQQKPGKAPKLLIYAASSLQSGVPSRFSGSGSGTDFTLAISSLQPEDFATYYCQQSYRSTPTFGGGTKVEIK
Regarding B17, the “Neutralization IC50 (RSV subtype A)” value with RSV F on RSV-A2 virus is greater than 25 µg/mL. Further, the dissociation constant Kd was determined as 182 nM in test [1] and 54.8 nM in test [2].
